B1: Protein Bop (Homo sapiens), Q7L3V2 (parent)
chain: MPRGRCRQQGPRIPIWAAANYANAHPWQQMDKASPGVAYTPLVDPWIERPCCGDTVCVRTTMEQKSTASGTCGGKPAERGPLAGHMPSSRPHRVDFCWVPGSDPGTFDGSPWLLDRFLAQLGDYMSFHFEHYQDNISRVCEILRRLTGRAQAWAAPYLDGDLPLPDDYELFCQDLKEVVQDPNSFAEYHAVVTCPLPLASSQLPVAPQLPVVRQYLARFLEGLALDMGTAPRSLPAAMATPAVSGSNSVSRSALFEQQLTKESTPGPKEPPVLPSSTCSSKPGPVEPASSQPEEAAPTPVPRLSESANPPAQRPDPAHPGGPKPQKTEEEVLETEGDQEVSLGTPQEVVEAPETPGEPPLSPGF

Variants of: B1
Conditions: with vdac1_human VDAC1, P21796
Chain of vdac1_human VDAC1, P21796 (P21796 whole entry): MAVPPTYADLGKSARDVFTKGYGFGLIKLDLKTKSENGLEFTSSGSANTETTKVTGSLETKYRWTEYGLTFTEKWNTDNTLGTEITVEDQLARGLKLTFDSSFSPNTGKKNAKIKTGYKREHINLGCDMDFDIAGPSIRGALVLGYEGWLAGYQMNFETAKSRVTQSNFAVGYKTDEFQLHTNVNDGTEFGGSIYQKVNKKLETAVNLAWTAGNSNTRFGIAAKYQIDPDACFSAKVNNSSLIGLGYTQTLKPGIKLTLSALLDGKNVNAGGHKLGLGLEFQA

effect of a mutation on the interaction | Variant
decreasing interaction strength | L118A

From IntAct's records for PubMed 23055042
